The source of these data is patent US10357539B2, “Use of peptides that block metadherin-SND1 interaction as treatment for cancer” (THE TRUSTEES OF PRINCETON UNIVERSITY, priority 2014, dated 2019).

Changes are numbered by the printed parent chain. In names and notes the source's numbering stands. Entries after “also recorded” stand apart in the source; their conditions may differ.

The chains are these.
T1: MTDH (364-582) (Homo sapiens, UniProt Q86UE4)
T1 construct: made in house; host or cells: E. coli DH5α
T1 sequence (Q86UE4 364-582): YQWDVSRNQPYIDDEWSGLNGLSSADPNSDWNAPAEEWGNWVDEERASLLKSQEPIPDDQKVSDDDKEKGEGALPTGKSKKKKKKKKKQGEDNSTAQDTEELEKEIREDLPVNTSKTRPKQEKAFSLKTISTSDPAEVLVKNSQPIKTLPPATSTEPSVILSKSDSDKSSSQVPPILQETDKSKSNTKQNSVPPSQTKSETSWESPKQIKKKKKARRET

T2: SND1 (Homo sapiens, UniProt Q7KZF4)
T2 construct: 15 μg of His-SND1 (16-339) was added to the resin; made in house; host or cells: E. coli DH5α
T2 sequence (Q7KZF4 16-339): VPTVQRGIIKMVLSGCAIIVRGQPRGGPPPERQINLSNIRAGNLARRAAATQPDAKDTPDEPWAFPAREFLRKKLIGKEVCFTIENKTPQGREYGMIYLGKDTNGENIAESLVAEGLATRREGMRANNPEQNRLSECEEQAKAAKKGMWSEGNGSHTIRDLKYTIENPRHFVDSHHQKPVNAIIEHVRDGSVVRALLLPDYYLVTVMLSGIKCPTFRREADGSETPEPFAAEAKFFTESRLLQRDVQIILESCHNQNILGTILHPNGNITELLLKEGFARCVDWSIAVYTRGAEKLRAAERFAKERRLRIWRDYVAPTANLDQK

T3: SND1 (Homo sapiens, UniProt Q7KZF4)
T3 construct: Full-length HA-tagged SND1 was co-expressed with full-length Myc-tagged wild-type (WT) or mutant MTDH in HEK293T cells; expressed in transfected cells; host or cells: HEK293T
T3 sequence (Q7KZF4 1-910): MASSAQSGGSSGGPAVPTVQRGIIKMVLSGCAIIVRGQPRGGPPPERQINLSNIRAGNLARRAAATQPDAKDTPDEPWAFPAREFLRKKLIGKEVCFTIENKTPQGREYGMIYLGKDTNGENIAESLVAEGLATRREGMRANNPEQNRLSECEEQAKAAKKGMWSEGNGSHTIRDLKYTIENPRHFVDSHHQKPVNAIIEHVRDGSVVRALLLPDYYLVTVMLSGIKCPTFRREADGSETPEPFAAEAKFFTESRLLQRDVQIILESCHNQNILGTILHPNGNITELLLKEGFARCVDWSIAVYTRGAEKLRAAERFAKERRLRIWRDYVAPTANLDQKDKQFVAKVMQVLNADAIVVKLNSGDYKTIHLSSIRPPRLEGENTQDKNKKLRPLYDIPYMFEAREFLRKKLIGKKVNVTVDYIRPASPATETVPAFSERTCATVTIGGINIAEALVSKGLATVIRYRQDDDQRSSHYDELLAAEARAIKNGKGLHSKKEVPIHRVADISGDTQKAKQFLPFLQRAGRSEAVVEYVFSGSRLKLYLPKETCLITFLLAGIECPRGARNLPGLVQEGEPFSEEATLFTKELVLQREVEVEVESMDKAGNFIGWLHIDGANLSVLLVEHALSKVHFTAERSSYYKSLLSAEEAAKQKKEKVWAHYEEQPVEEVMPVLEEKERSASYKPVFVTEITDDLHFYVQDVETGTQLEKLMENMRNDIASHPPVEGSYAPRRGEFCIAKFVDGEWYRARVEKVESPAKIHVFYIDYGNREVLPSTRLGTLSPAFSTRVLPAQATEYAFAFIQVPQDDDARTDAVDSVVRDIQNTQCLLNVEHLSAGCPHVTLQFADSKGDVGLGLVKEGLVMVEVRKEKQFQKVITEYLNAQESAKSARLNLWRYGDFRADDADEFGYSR

B1: SN1/2 domains: SND1 N-terminal SN1/2 domains, amino acids 16-339 of SEQ ID NO: 2 (protein, listed as Homo sapiens)
chain: T2 sequence (Q7KZF4 16-339)
B2: W394D: MTDH single point mutant W394D (protein, UniProt Q86UE4 1-582, looked up, variant W394D)
Protein LYRIC: MAARSWQDELAQQAEEGSARLREMLSVGLGFLRTELGLDLGLEPKRYPGWVILVGTGALGLLLLFLLGYGWAAACAGARKKRRSPPRKREEAAAVPAAAPDDLALLKNLRSEEQKKKNRKKLSEKPKPNGRTVEVAEGEAVRTPQSVTAKQPPEIDKKNEKSKKNKKKSKSDAKAVQNSSRHDGKEVDEGAWETKISHREKRQQRKRDKVLTDSGSLDSTIPGIENTITVTTEQLTTASFPVGSKKNKGDSHLNVQVSNFKSGKGDSTLQVSSGLNENLTVNGGGWNEKSVKLSSQISAGEEKWNSVSPASAGKRKTEPSAWSQDTGDANTNGKDWGRSWSDRSIFSGIGSTAEPVSQSTTSDYQWDVSRNQPYIDDEWSGLNGLSSADPNSDDNAPAEEWGNWVDEERASLLKSQEPIPDDQKVSDDDKEKGEGALPTGKSKKKKKKKKKQGEDNSTAQDTEELEKEIREDLPVNTSKTRPKQEKAFSLKTISTSDPAEVLVKNSQPIKTLPPATSTEPSVILSKSDSDKSSSQVPPILQETDKSKSNTKQNSVPPSQTKSETSWESPKQIKKKKKARRET
B3: W394A: MTDH mutant W394A (protein, UniProt Q86UE4 1-582, looked up, variant W394A)
Protein LYRIC: B2 Protein LYRIC with D394A
B4: D389R: MTDH single point mutant D389R (protein, listed as Homo sapiens)
chain: B2 Protein LYRIC with A78S, T317A, D389R, D394W
B5: W401A: MTDH mutant W401A (protein, UniProt Q86UE4 1-582, looked up, variant W401A)
Protein LYRIC: B2 Protein LYRIC with D394W, W401A
B6: W401D: MTDH single point mutant W401D (protein, UniProt Q86UE4 1-582, looked up, variant W401D)
Protein LYRIC: B2 Protein LYRIC with D394W, W401D

The target in one test is T1, MTDH (364-582). In words: GST-mediated pull-down of SND1 constructs and mutants by GST-tagged MTDH (364-582). In kind it is binding. The settings on record: SND1 mutants in SND1 (16-339). The text has this:
(§1) (FIG. 22A) In vitro pull-down of SND1 (16-339) by GST-tagged MTDH (364-582) harboring WT or mutant sequence. The proteins bound to GS4B were examined on SDS-PAGE and visualized by Coomassie blue staining. (FIG. 22B) In vitro pull-down of WT and mutant SND1 (16-339) by GST-tagged MTDH (364-582). The bound proteins were examined as in (FIG. 22A). For both (FIG. 22A) and (FIG. 22B), experiments were repeated three times; representative results are shown. The normalized percentage of binding was averaged from three experiments; mean±SEM was shown below the data. (FIG. 22C) HEK293T cells were transfected with human HA-SND1, WT Myc-MTDH or Myc-MTDH with indicated single point mutation. Lysates were immunoprecipitated with anti-Myc antibody and immunoblotted with the indicated antibodies. (FIG. 22D) HEK293T cells were transfected with human Myc-MTDH, WT HA-SND1 or mutant HA-SND1 with indicated single point mutations or deletions. Lysates were immunoprecipitated with anti-Myc and immunoblotted with the indicated antibodies.
(§2) GST-Mediated Pull-Down Assay: ˜20 μg of GST-MTDH (different truncation forms and site mutants) was bound to 10 μl of glutathione resin via GST tag. The resin was washed with 200 μl assay buffer (25 mM Tris, PH8.0, 150 mM NaCl, 3 mM DTT) three times to remove the excess unbound protein. 15 μg of His-SND1 (16-339) was added to the resin in a 100 μl volume suspended in the assay buffer with 2 mg/ml of BSA. The mixture was washed with 200 μl assay buffer twice before examined by SDS-PAGE, and visualized by Coomassie blue staining. The experiments were repeated 3 times and the ratio of SND1 associated with GST-MTDH was analyzed by ImageJ.
B1: the “MTDH-binding of SND1 domains and mutants, in vitro” value is listed as “bind stoichiometrically with MTDH”.

The target in another test is T2, SND1. In words: GST-mediated pull-down of SND1 by GST-tagged MTDH fragments and mutants. In kind it is binding. The settings on record: SND1 (16-339); GST-tagged MTDH (364-582).
Description: (§3) FIGS. 7A-E represents determination of key regions and residues mediating the MTDH-SND1 interaction. (FIG. 7A) Schematics of MTDH fragments and mutants with indicated SND1-binding capability. + indicates binding and − indicates no binding based on results shown below. Two putative nuclear localization signals are residues 432-451 for NLS2 and residues 561-580 for NLS3. In the enlarged view of the minimal binding region 386-407, 9 residues were targeted for mutagenesis in the current study. […] (FIG. 7B) Pulldown of His6-SND1AC by GST-tagged MTDH fragments with indicated boundaries. The bound proteins were examined by SDS-PAGE and visualized by Coomassie blue staining. (FIG. 7C) Pulldown of His6-SND1ΔC by GST-tagged WT or triple mutant MTDH fragments (364-582). For (FIG. 7B) and (FIG. 7C), 1/10 of the His6-SND1ΔC input was shown, and GST alone was used as a negative control. Representative results of 3 independent experiments are shown. (FIG. 7D, FIG. 7E) Lysates from HEK293T cells expressing the indicated ectopic human SND1, AGO2 or MTDH were immunoprecipitated with anti-Myc and immunoblotted with the indicated antibodies.
as §1, §2
Consider B2, for which the “SND1-binding of MTDH (364-582) point mutants, in vitro” value (“SND1-binding of MTDH” below) is on record as “abolished or significantly reduced the interaction”.

Take B3: the “SND1-binding of MTDH” value is “abolished or significantly reduced the interaction”.

In the case of B4, the “SND1-binding of MTDH” value is “barely had any effect”.

In the case of B5, the “SND1-binding of MTDH” value was “abolished or significantly reduced the interaction”.

For the molecule B6, the “SND1-binding of MTDH” value is given as “abolished or significantly reduced the interaction”.

The next test concerns the target T3, SND1. In words: Co-immunoprecipitation of full-length Myc-MTDH (WT or mutant) and HA-SND1 in HEK293T cells. In kind it is cell-based. The settings on record: HEK293T cell lysates, immunoprecipitation and immunoblot.
Description: as §3, §1
Immunoprecipitation and western blot For immunoprecipitation (IP) experiments, cultured cells were washed in cold PBS and lysed in lysis buffer (20 mM Tris pH 7.4, 0.15 M NaCl, 1 mM EDTA, 1 mM EGTA, 1% Tx-100, 0.0025 M Na2P2O7, 1 mM α-glycerolphosphate, 1 mM Na3VO4, and 1 mM NaF) with an EDTA-free protease inhibitor mixture (Roche Applied Science) and PMSF. Cell lysates were then incubated on ice for 10 min, centrifuged, and precleared by incubating with protein A/G beads (Santa Cruz Biotechnology) for 1 h at 4° C. For IP bead preparation, 30 μl of protein A/G beads were incubated with 5 μg of antibodies for 2 h at 4° C. IPs were carried out for overnight at 4° C., and beads were centrifuged, washed and subsequently boiled for 5 min in SDS protein loading buffer to elute bound protein. IP lysates were subjected to western blotting with indicated antibodies.
Immunoprecipitation and western blot: For in vivo immunoprecipitation (IP) experiments, cultured cells were washed in cold PBS and lysed in lysis buffer (20 mM Tris pH 7.4, 0.15 M NaCl, 1 mM EDTA, 1 mM EGTA, 1% Tx-100, 0.0025 M Na2P2O7, 1 mM β-glycerolphosphate, 1 mM Na3VO4, and 1 mM NaF) with an EDTA-free protease inhibitor mixture (Roche Applied Science) and PMSF. Cell lysates were then incubated on ice for 10 min, centrifuged, and precleared by incubating with protein A/G beads (Santa Cruz Biotechnology) for 1 h at 4° C. For IP bead preparation, 30 μl of protein A/G beads were incubated with 5 μg of antibodies for 2 h at 4° C. IPs were carried out for overnight at 4° C., and beads were centrifuged, washed and subsequently boiled for 5 min in SDS protein loading buffer to elute bound protein. IP lysates were subjected to western blotting with indicated antibodies.
For orientation: In western blotting, separated proteins are transferred to a membrane and probed.
Turning to B2, the “interaction of full-length MTDH (WT or mutant) with HA-SND1” value (from here on “interaction of full-length MTDH”) is “completely and not”.

For B3, the “interaction of full-length MTDH” value is listed as “not”.

For the molecule B4, the “interaction of full-length MTDH” value was “did not affect the interaction”.

For the molecule B5, the “interaction of full-length MTDH” value is “not”.

Regarding B6, the “interaction of full-length MTDH” value was “partially abolished the binding; also recorded: significantly reduced the binding; also recorded: strongly reduced the binding”.
